Publication PMC3635982

Experiments:
[1] = target: human epidermal growth factor receptor, endogenous in HEp-2 cells (human (endogenous in HEp-2)) (UniProt P00533)
[2] = target: human epidermal growth factor receptor, endogenous in HEp-2 cells (human (endogenous in HEp-2)) (UniProt P00533); remark: listed apart in the source

With “Pmp21 on the surface of C. pneumoniae elementary bodies (from UniProt Q9Z6U5 31-1609) (natural protein)” the infectivity of C. pneumoniae for cells preincubated 2 h with EGF [1] was 47 % reduction and the infectivity of C. pneumoniae for HEp-2 cells pretreated 2 h with cetuximab [2] was 54 % reduction.
